Data taken from the nanobody polyreactivity screen of Harvey et al. (2022).

Assay: yeast display, Sf9 membrane polyspecificity reagent, FACS + sequencing; frameworks hold sequencing errors
In short: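 Polyreactivity labels are assigned by the sorting gate from which each nanobody was recovered. The gates were low and high (top ~1%), set on anti-HA fluorescence for expression and streptavidin fluorescence for reagent binding. Before sorting, galactose-induced (36–48 hours) yeast display cells were stained for 1 hour at 4 °C with 10% biotinylated, detergent-solubilized Sf9 membrane reagent.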

Row | Sequence | polyreactivity (PSR sort gate)
1 | QGQLVDSGGGLVQAAGSLRLSCDASGRTFVYNDMGWYRQAPGKERELVATISVSGCSTYYADSVKGRFTISRDNAKNTVYLQMISLKPEDTAVYYCAARRTWYEDHDYWGQGTQVTVSS | low polyreactivity
2 | QGQLVDSGGGLVQAGGSLRLSCAASGSIVRPNAMGWYRPAPGKEREFVAAITSSSGPTYYADSVKGRFTISRDNAKNTVYLQMNSLKPEDTAVYYCAAKYTSRSYKYDYWGHGTQVTVSS | high polyreactivity
3 | QGQLVESCGGLVQAGGSLRLSCAASGRTFYYYAMGWYRQAPRKERELVAAMTSGGRTNSADSVKGRFTSSRDKATNTDSLQMNSLKPEDTAVYYCAKPPYSQYEFDYWGQGTQVTVSS | high polyreactivity
4 | QGQLVESGGALVQAGGSLRLICAASGRTFAAYSMGWYRQAPGKERELVAAISIGGSTNYADSVKVRFTISRDNAKNSVYLQMNSLKPEDSAVYYCAAPGRRYLRARIRYEYWGQGTQLTVSS | high polyreactivity
5 | QGQLVESGGALVQAGGSLRLSCAASGRILRYYAMGWNRQAPGKERELVAVITSSDGSTYYADSVKGRFTISRDNAKNTVYLQQNSLKPEDTAVDYCAAAPLWRVASWWDPYRRYDYWGQGTQVTVSS | low polyreactivity
6 | QGQLVESGGCLVQAGGSLRLSCDASGFIFTSYAMGWYRQAPGQEWELVAVITASGGSTYYADSVKGRFTISRDNAKNTVYLQMNSLKPEDTAVYYCNRYYQSYYGWTGPYGYWGQGTQVTVSS | high polyreactivity
7 | QGQLVESGGGIVQAGVSLRLSCAASGSIFTANAMGWYRQAPGKVRELVAAISRSGGRTYYADSVKGRFTISRDNAKNTVYLQMNSLNPEDTAVYYCNVGSFNTSGYDYWGQGTQVTVSS | high polyreactivity
8 | QGQLVESGGGLGQAGGSLRLSCAASGSTSGIYAMGWYRQAPGKERELVAAIDTSGGSSYADSVKGRFTISRDNAKHTVYLQMNSLKPEDTAVYYCAKPFCSNSWSHGYWGQGTQVTVSS | low polyreactivity
9 | QGQLVESGGGLVQAGGSLRFSCAASGRIFSVYDMGWYRQAPGTERELVAAIDTSDGSTNYADSVKGRFTISRDNAKNSVYLQMNSLKPEDTAVYYCNATDSYVPFDYWGQGTQVTVSS | low polyreactivity
10 | QGQLVESGGGLVQAGGSLRLRCAASGFTFAVNTMGWYRQAPVKERELVAAITASGGSTHYADSVKGRFTISRDNAKNNVYLQMNSLKPEDTAVYYCAARPRLYQYYYWGQGTQVTVSS | high polyreactivity
11 | QGQLVESGGGLVQAGGSLRLSCAAAGYTLGVNAMGWSRQAPGKERELVAAINYIDTRTYYAASVKGRFTISRDNAKNTVYLQMNSLNPEDTAVYYCAARPYVPWVKRYYYWGQGTQVTVSS | low polyreactivity
12 | QGQLVESGGGLVQAGGSLRLSCAASGFTFSPYAMGSYRQAPGKERELVAVISGGGSTYYADSVKGRFTISRDNAKNTVYLQMNSLKPEDTAVYYCAKRFYRSYYWGQGTQVTVSS | high polyreactivity
13 | QGQLVESGGGLVQAGGSLRLSCAASGGIFGNYAMGGYRQAPGKERELVAVIDSSDGSTHYADSVKGRFSISRDNAKTTVYLQINSLKAEDTAVYYCATLGFWNYWTFDYWGQGTQVTVSS | low polyreactivity
14 | QGQLVESGGGLVQAGGSLRLSCAASGLTFKGYAMGWYRQAPGKERELVAAITWDTGSTYYADSVKGRFTISRDNAKNTVYLQMNSLKPEDTAVYYCAAVGSTTTGVRRRGYWGQGTQVTVSS | high polyreactivity
15 | QGQLVESGGGLVQAGGSLRLSCAASGNTFNVYAMGWYRQAPGKARELVAAITLSGGSTYYADSVKGRFTISRDNSKNTVYLQMNSLKPEDTAFYYCNAEEDGTDYDYWGQGTQVTVSS | low polyreactivity
16 | QGQLVESGGGLVQAGGSLRLSCAASGRIFTYYAMGWYRQAPGKERELVAAISWSGGSTYYADSVKGRFTISRDNAKNTVYLQMNSLKPEDTAVYYCAAVGYAGLPYGLRPNNSGYWGQGTQVTVSS | low polyreactivity
17 | QGQLVESGGGLVQAGGSLRLSCAASGRTFGINAMGWYRQAPGKERELVAVISFGDGGTYYADSVKGRFTISRDNAKNTVYLQMNSLKPEDTAVYYCATDYQSTSVWGGHFVINPYDYWGQGTQVTVSS | low polyreactivity
18 | QGQLVESGGGLVQAGGSLRLSCAASGRTFGYYAMRWYRQARGKERELVAVITRSGGTTYYADSVKGRFTISRDNAKNTVYLQMKSLKPEDTAVYYCHPAYYTGMYWGQGTQVTVSS | high polyreactivity
19 | QGQLVESGGGLVQAGGSLRLSCAASGRTFRGNTMGWYRQAPGKERELVATISSRSSSTYYADSVKGRFTISRDNAKNTVYLQMHSLKPEDTAVYYCAVTNPLVRSGYSRYFGRYDYWGQGTQVTVSS | high polyreactivity
20 | QGQLVESGGGLVQAGGSLRLSCAASGSIFDTYAMGWYRQAPGKERELVAAITRRAGSTYYADSVKGRFTISRDHAKNTLYFQMNSLKPEETSVYYCAAGYDRYPGGIDEYWGQGTQVTVSS | low polyreactivity
21 | QGQLVESGGGLVQAGGSLRLSCAASGSIVFYYGMGWYRQAPGKERELVAAITWSGDSPYDADSVKGRFTISRDNAKNTVYLQLNSLKPEDTAVYYCNADQTSYYYPGNYDYWGQGTQVTVSS | high polyreactivity
22 | QGQLVESGGGLVQAGGSLRLSCAASGSMFYRYAMGWYRQAPGKERELVAVITSAGGTHYADSVKGRFTISRDNAKNTVYLQMTSLKPEDTAVDYCARRGYYYDYWGEGTQVTVSS | high polyreactivity

Row | Sequence | polyreactivity (PSR sort gate)
23 | QGQLVESGGGLVQAGGSLRLSCAASGSTFAYYAMGWYIPAPGKERELVAAITSRGGSTYYADSVKGRFTISRDNAKNTVYLQMNSLKPEDTAVYYCAAVTRNQGSYRYYYWGQGTQVTVSS | high polyreactivity
24 | QGQLVESGGGLVQAGGSLRLSCAASGSTFAYYAMGWYRQAPGKERELVAAINTTTGSTFYADSVKGRFTISRDNAKNTVYLQMNSLKPEDTAGYYCAAGVTGPSDDYDYWGQGTQVTVSS | low polyreactivity
25 | QGQLVESGGGLVQAGGSLRLSCAASGSTFPPYRMGWYRQAPGKERELVAAITWRGGRTYYADSVKGRFTISRDNAKNTVYLQMNSLKREDTAVYYCAADYPYQYGRYAGSPGAGRYYWGQGTQVTVSS | high polyreactivity
26 | QGQLVESGGGLVQAGGSLRLSCAPSGFIFKFYAMGWYRQAPGKESELVAAITSSGGSTNYADSVKGRFTISRDNAKNTVYLQMISLKPEDTAVSYCAAQFPGVYYYIYDYWGQGTQVTVSS | high polyreactivity
27 | QGQLVESGGGLVQAGGSLRLSCAPTGRTFAHYARGWYRQAHWTERELVAGITRRAGSTYYADSVKGRFTISRDNAKHSVYLHMNSLKPEETEVYYCAAPRDWDAGDYWGQGTQVTVSS | high polyreactivity
28 | QGQLVESGGGLVQAGGSLRLSSAASGSTFVGNAMGWYRQAPGKEREMVATISNSGGRTYYADSVKGRFTISRDNAKNTVYLQMTSLKPEDTAVYDCAADHPAFGPGYSFDYWGQGTQVTLSS | low polyreactivity
29 | QGQLVESGGGLVQAGGSLRLTCAASGFIFDNYAMGWYRHAPGKERELVADISWGGGSTYYADSVKGRFTISRDNAKNTVYLQMNSLTPEDTAVYYCDAQYSYRMDYWGQGTQVTVSS | low polyreactivity
30 | QGQLVESGGGLVQAGGSLRLTCAASGITFDDYAMGWYRQAPGKERELVAAISWSGDITYYADSVKGRFTSSRDNATNTVYLQMNSLKPEDTAVYYCAADLSPYGYDYWGQGTQVTVSS | low polyreactivity
31 | QGQLVESGGGLVQAGGSLRLTCAASGRIFKWYAMGWYIQETGKERELVAAISSAGSTYYADSVKGRFTISRDNAKNTVYLQLNSLKPEDTAVYYCAARKYTFRRKSRYGYWGQGTQVTVSS | high polyreactivity
32 | QGQLVESGGGLVQARGSLRLSCAAYGRTFYGNVMGWYRQAPGNERELDATISVSSGSTYYADSVKGRFTISRDTEKNTVYLLMNSLKPEDSAVYYCNADDTDYATGGGNYWGQGTQVTVSS | low polyreactivity
33 | QGQLVESGGRLVQAGVSLRLSCAASGFIFPKYAMGWYRQAPGKERELVAVITWRSGSTYYADSVKGRFTISRDNAKNTVYLQMNSLKTEETADYYCNARRSSGRYSKMGYWGQGTQVTVSS | high polyreactivity
34 | QGQLVESGGVLVQAGGSLRLSCAASGSIIQPYAMGWYRQAPGKERELVAAISRGGTTYYADSVKGRFTISRDNAKNTVYLQMNSLKPEDTAVYYCAVKGYRYGTRYDYWGQGTQVTVSS | high polyreactivity
35 | QGQLVESGRGLVQAGGSLRLSCAASGRTFRRYGKGWYRQAPGNERELVAAITSGGGTYYEDSVKGRVTISRDNAKNTVYLQMNSLKPEDTAVYYCAAQRVYKSSPSYDFWGQGTQVTVSS | low polyreactivity
36 | QGQLVESGRGLVQAGGSLRLSSAASGSTFFANAMGWYRQAPGKERELVAAIDKRGGRTYYADSVKGRFTISRDNAKNTVYLQMNSLKPEDTAVYYCNAVANYRLKYDYWGQGTQVTVSS | high polyreactivity
37 | QGQLVETGGGLVQAGGILRLSCAASGSIFGDYDMGWYRQDPGKERDLVAAITSSGGMTYYADSVKGRFTISRDNAKNTVYFQMNSLKPVDTAVYYCAAYGYGSKYRYTGYYYWGQGTQVTVSS | low polyreactivity
38 | QGQRVESGGGLVQAGGSLRLSCAASGSIFTYAMGGSRQAPGNERELGAAISRSGGRTYYADSGKGRFTISRDNAKNTVSLHMNSLKPEDTAVYYCAALLLKDYDYWGPGTQVTVSS | low polyreactivity
39 | QHHLVESGGGLVQAGGSLRLSCAASGRPLQGYAMGWYRQAPGKHRELVAAITWSGGSTYYADSVKGRFTISRDKAKNTVYLQMNSLKPEDTAVYYCATDDDSARFDYWGQGTQVTVSS | low polyreactivity
40 | QHQLVDSGVCLVQAGRSLRLSCDASGYTFYIYAMGWYTQAPRKERELVATISSSGGGTYYADSVKGRFTISRDNAKNTVYLQMNSLNPEDTAVYYCNADGWYWQAQGYDYWGQGTQVTVSS | low polyreactivity
41 | QIQLVESCGGLVQAGGSLRLICDDSGITFTIYAMGGYRQAHGKERELVAAIDSGGGTNYADSVKGRFTISRDNAKNTVYLQMNSLKPEDTAFYYCAAYWYAEGYWVSRDYWGQGTQVTVSS | low polyreactivity
42 | QIQLVESVGGLVQAGGSLRLSCAASGSIFQYYAMGWYRQAPGKERELVAAISSGGSTYYADSVKGRFTISRENAKNTVYLQMNSLKPEDTAVYYCAADLQSGYTIPTSIVEYHPFDYWGQGTQGTVSS | low polyreactivity
43 | QLHLEESGGGLVQAGGSLRISCAASGSTFGIYAMGSYRQAPGKEREILAAISVGGGRTYYADTVKGRFTISRDNAKNTVLLQMNSLKPEDTAVYYCAVYGFWGLGTQVTVSS | high polyreactivity
